According to publication PMC8215385, “Design of a Proteolytically Stable Sodium-Calcium Exchanger 1 Activator Peptide for In Vivo Studies” (Frontiers in Pharmacology, 2021):
Non-standard residues stand in square brackets, D forms with d. No end group written: not given here. *: point of attachment. Biotin = O=C1N[C@H]2[C@H](CS[C@H]2CCCCC(=O)*)N1; NMePro = CN1CCC[C@H]1C(=O)*; Ahx = NCCCCCC(=O)O

B2: biotin-ahx-pSer68-PLMcyt (peptide)
peptide: {Biotin-Ahx}-KRCRCKFNQQQRTGEPDEEEGTFRSSIRRLSSRRR
modifications: also: phosphoserine at Ser68 (numbering not mappable from notes)
notes: cytoplasmic part of phospholemman (PLM, FXYD1), printed as [residues removed]; Immobilised on SA chips (SPR) and used as overlay probe on the peptide arrays; also called biotin-pSer68-PLM; biotin-pSer68-PLMcyt; source: synthetic peptide (Genscript, >80% purity)

Legend:
pSer68-PLMcyt = target: T1, pSer68-PLMcyt (Mus musculus, UniProt Q9Z239); assay: Peptide array overlay with biotin-pSer68-PLM; format: binding; settings: membrane-synthesized peptides overlaid with 5 μM biotin-pSer68-PLM, anti-biotin-HRP
T1 construct: purchased Genscript; host or cells: synthetic peptide
T1 sequence (Q9Z239 58-92 limits assumed): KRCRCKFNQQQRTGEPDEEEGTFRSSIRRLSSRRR
Description: Peptides on cellulose membranes were synthesized using a Multipep automated peptide synthesizer (INTAVIS Bioanalytical Instruments AG, Koeln, Germany) ([Frank, 1992], [Frank, 2002]). Peptides in solution were synthesized (listed below) at >80% purity by Genscript (Corporation, Piscataway, NJ, United States). For some of the peptides a cell-permeable TAT ([…]) or a biotin tag was included at either N- or C-terminus with or without an ahx-linker in between to avoid any potential steric hindrance.
Peptide array membranes were blocked in 1% casein for 2–4 h and overlaid with 5 μM of biotinylated pSer68-PLM peptide in 1% casein overnight at 4°C. The membranes were then washed three times for 10 min in TBS-T before incubation with anti-biotin-horseradish peroxidase (HRP) for 1 h (see Antibodies and Recombinant Protein). Peptide-bound spots were detected as described in the immunoblotting section.

biotin-ahx-pSer68-PLMcyt [1] = target: B2; assay: SPR; Biacore X100; biotinylated pSer68-PLMcyt or PLMcyt immobilised on SA chip (~50-200 RU); His-TF-NCX1cyt dialysed into running buffer injected at a range of concentrations (single cycles), 30 or 100 ul/min, 180 s, dissociation 600 s; 1:1 (Langmuir) fit
biotin-ahx-PLMcyt = assay: as above
NCX1 = assay: NCX activity (NCX rate constant, 1/τcaff) in isolated adult cardiomyocytes; format: cell-based, mouse; settings: 1 μM, vs TAT-tagged scrambled control
Procedure: 8 weeks old C57BL6/J mice were randomized to SHAM or an aortic banding (AB) operation using o-rings (ORAB) as previously described ([Melleby et al., 2018]). Mice were anesthetized in a combination of 5% isoflurane and 95% O2, before endotracheal intubation and ventilation using a MiniVent rodent ventilator (Harvard Apparatus, United States). Left sided hemothoracotomy in the third intercostal space was performed, before dissection and placement of the o-ring around the ascending aorta. Animals were allowed to recover, and post-operative analgesia was achieved by injections of buprenorphine in accordance with the institutional guidelines. […]
(§1) Isolated cardiomyocytes were loaded for 10 min with 5 μM fluo-4 AM ester (Molecular Probes, Eugene, OR, United States) at RT. […] Whole-cell Ca^2+ transients were recorded in field stimulated cardiomyocytes at 0.5 Hz (2.5 ms bipolar pulses) and 37°C with Cairn Research Optoscan Monochromator (excitation 485 nm, emission 515 nm long pass) (Cairn Research Ltd., United Kingdom). Regular Ca^2+ transients were recorded for at least 3 min per cell, before the field stimulation was stopped and 10 mM caffeine was added. Background fluorescence was recorded for each cell. […] The NCX rate constant was calculated as: 1/τcaff ([Díaz et al., 1997]), as the non SERCA2, non-NCX mediated Ca^2+ removal was considered negligible.

[2] = tested on: adult mouse cardiomyocytes; assay: Ca2+ transients and SR Ca2+ load in isolated adult cardiomyocytes; format: cell-based; settings: 1 μM, vs scrambled control
Procedure: 8 weeks old C57BL6/J mice were randomized to SHAM or an aortic banding (AB) operation using o-rings (ORAB) as previously described ([Melleby et al., 2018]). Mice were anesthetized in a combination of 5% isoflurane and 95% O2, before endotracheal intubation and ventilation using a MiniVent rodent ventilator (Harvard Apparatus, United States). Left sided hemothoracotomy in the third intercostal space was performed, before dissection and placement of the o-ring around the ascending aorta. Animals were allowed to recover, and post-operative analgesia was achieved by injections of buprenorphine in accordance with the institutional guidelines. Animal experiments was approved by the Norwegian National Animal Research Committee (FDU 7040).
Cardiomyocytes were isolated based on a similar protocol as recently described ([Ackers-Johnson et al., 2016]). Mice were anesthetized and mask ventilated with a combination of 3% isoflurane and 97% O2. Deep surgical anesthesia was confirmed by abolished pain reflexes. […] Then 7 ml of buffer A (in mM: HEPES 25, NaCl 130, KCl 5.4, NaH2PO4 0.4, MgCl2 0.5, D-glucose 22, pH 7.4) with 5 mM EDTA was injected into the right ventricle. Thereafter, the aorta was clamped and the heart was excised. 10 ml of the buffer solution and thereafter 3 ml of the buffer solution without EDTA were injected into the left ventricle over 2–5 min. Then preheated solution A containing 0.8 mg/ml collagenase II was injected into the left ventricle over ∼20 min. The atria and right ventricle were removed, and the cardiomyocytes were isolated according to the same procedure as described for the Langendorff-based isolation of rat cardiomyocytes (described further below).
as §1, with “RT. The superfusate contained (mM): NaCl 140, HEPES 5, KCl 5.4, CaCl2 1, MgCl2 0.5, D-glucose 5.5 and NaH2PO4 0.4. The pH was adjusted to 7.4.” for “RT.”, “cell. Ca^2+ transients amplitude and SR Ca^2+ load was calculated as maximal fluorescence (F) divided on resting fluorescence (F0) on field stimulated and caffeine evoked Ca^2+ transients, respectively (See Figure 4I for illustration of protocol details).” for “cell.”

biotin-ahx-pSer68-PLMcyt [3] = target: B2; assay: SPR; settings: both partners purified
[4] = target: T2, OPT with three amino acids deleted at its N-terminus; assay: peptide or protein array; peptides spot-synthesised on cellulose membranes, blocked in 1% casein, overlaid with 5 uM biotinylated pSer68-PLM peptide in 1% casein overnight at 4°C; detected with anti-biotin-HRP; settings: both partners purified
T2 construct: source: synthetic peptide, spot-synthesised on cellulose membrane
T2 peptide: YKEIEQLIELANYQVLS

mini-OPT = target: T3, mini-OPT; assay: as above; settings: both partners purified
T3 construct: residues 3-18 of OPT; source: synthetic peptide, spot-synthesised on cellulose membrane
T3 peptide: PYKEIEQLIELANYQV

[5] = target: T4, OPT with two amino acids deleted at its C-terminus; assay: as above; settings: both partners purified
T4 construct: C-terminus'; source: synthetic peptide, spot-synthesised on cellulose membrane
T4 peptide: YHPYKEIEQLIELANYQV

“E6G: E6G substitution of mini-OPT on the peptide array; negative control in pull down (PYKEIGQLIELANYQV)” was tested, and the “pSer68-PLM binding on peptide array” value (pSer68-PLMcyt) was “abolished pSer68-PLM binding”.

HIS-TF-NCX1cyt (domain or fragment) was tested, and the Kd (biotin-ahx-pSer68-PLMcyt [1]) was 4.3 nM, the koff (biotin-ahx-pSer68-PLMcyt [1]) was 0.0011 s⁻¹ and the kon (biotin-ahx-pSer68-PLMcyt [1]) was 380000 M⁻¹ s⁻¹. For the same molecule, the Kd (biotin-ahx-PLMcyt) was 4.1 nM, the koff (biotin-ahx-PLMcyt) was 0.004 s⁻¹ and the kon (biotin-ahx-PLMcyt) was 1.1e+06 M⁻¹ s⁻¹.

In the case of “NOPT-TAT: NOPT made cell permeable by addition of a TAT tag to its C-terminus ([NMePro]YKEIEQLIELANYQVRKKRRQRRR)”, the “increase of NCX1 activity (NCX1 rate constant)” value (NCX1; cardiomyocytes from SHAM-operated mice, 10–13 cells from three mice) is reported as “approximately 40%”, the “increase of NCX1 activity (NCX1 rate constant)” value (NCX1; cardiomyocytes from aorta banded HF mice, 6–7 cells from three mice) is reported as “approximately 60%” and the “Ca2+ transient amplitude” value ([2]; HF cardiomyocytes) is reported as “did not change”. The “sarcoplasmic reticulum (SR) Ca2+ load” value ([2]; HF cardiomyocytes) was “did not change”, the “Ca2+ transient amplitude” value ([2]; SHAM cardiomyocytes) was “did not change” and the “sarcoplasmic reticulum (SR) Ca2+ load” value ([2]; SHAM cardiomyocytes) was “did not change”.

For PYKEIEQLIELANYQV [mini-OPT], the “pSer68-PLM binding on peptide array” value (pSer68-PLMcyt) was “minimum sequence that was required to bind pSer68-PLMcyt”.

With “Y14A: Y14A substitution of mini-OPT on the peptide array; negative control in pull down (PYKEIEQLIELANAQV)” the “pSer68-PLM binding on peptide array” value (pSer68-PLMcyt) was “abolished pSer68-PLM binding”.

B1: NOPT-TAT (peptide)
peptide: [NMePro]YKEIEQLIELANYQVRKKRRQRRR
notes: also called TAT-conjugated NOPT; cell-permeable NOPT; source: synthetic peptide (Genscript, >80% purity)
B1 was tested, and the Kd (biotin-ahx-pSer68-PLMcyt [3]) was 129 nM.

B2: binds [4]; binds (mini-OPT); binds [5].
